From the DeepSol protein solubility set

test: soluble on expression in E. coli; label from the status in PepcDB or PDB records

Row | Sequence | soluble on expression in E. coli
1 | MAHHHHHHSLAEQIDLKTFKTDVADYEAARPEYPIGITDWITDEFLIDETSIILELGAGTGKFTPRIIASHPKEIIAVDVYPEMLDVLRKKFPNVDCRAGSAMAIPLEDESVDLVLCAQCFHWFANEEAMKEIYRVLKPNGKLGLVWNTRDDTVPWIEKVSKILGRYRKDAPSFVSWKWAELFPGHGFGKLRYCAFPFSRCLTVEELHTLMNSFSFIYKLPEEEKEKVHAELDEIAKTIPRVQNTDQIKLCYQTMAFSSEKEPAKEG | soluble
2 | MAHHHHHHSLKCILLNQAEELPIEFLPKDGVYGKGKLFDSRNMEIENFTESDILQDARRAAEAHRRARYRVQSIVRPGITLLEIVRSIEDSTRTLLKGERNNGIGFPAGMSMNSCAAHYTVNPGEQDIVLKEDDVLKIDFGTHSDGRIMDSAFTVAFKENLEPLLVAAREGTETGIKSLGVDVRVCDIGRDINEVISSYEVEIGGRMWPIRPISDLHGHSISQFRIHGGISIPAVNNRDTTRIKGDSFYAVETFATTGKGSIDDRPPCSHFVLNTYKSRKLFNKDLIKVYEFVKDSLGTLPFSPRHLDYYGLVKGGSLKSVNLLTMMGLLTPYPPLNDIDGCKVAQFEHTVYLSEHGKEVLTRGDDY | not soluble
3 | MAHYKAADSKREQFRRYLEKSGVLDTLTKVLVALYEEPEKPNSALDFLKHHLGAATPENPEIELLRLELAEMKEKYEAIVEENKKLKAKLAQYEPPQEEKRAE | soluble
4 | MAICESGALPSHVGALSYSGGAASSFFGRRNADGLNDKWLALRDAFRAAGGDLLAIEDARSAALDFVIHVNAHRLRHDVPAFVILAESEFIHPPNVDWRMLQQYKGIFTWMPDLVRRGIGTEICLAHPLGAGVVDGYQERPQLLVMIASNKALPVWRPAVDLYRERVRAIRWFEKHAPQAFALYGHDWDKSPRLPTPLGGIVHGVEFVLPWRLQWFPSWKGVIPSKREVLRHARFSLCYENVRGLRGYITEKIFDAFCAGNVPVYWGAEDITDYIPADCFIDRRAFGDYADLYRYLTSMPETRYIQYQQAICDFLVSPAAKRFSSEIFATTIVGKVLDTLGRRDE | not soluble
5 | MAIELYSQREIEKIRKASQIVAEVLHIVAENVKPGVSTWDLEMIARKETEKRGAKPAFLGYKPPFSDVRYPAALCISINDEVVHGLPKKEKVIKEGDVVSIDFGAIYDGYAGDSAITVIAGKGSPEAQKLLEATKEALYNAIEKALPGKKVGDITKAIHETAEKYGFKTILRYGGHGVGRKVHQEPFVPNNVKDIGKKNPRLRQGMVIAIEPMLSIGTEETVEDGDGWTVKTKDGSLAAHFEHTVAITKKGPVILTEL | soluble
6 | MAIKITPDEFSLLIQRLNKKWRVFAPSAEFRGGRFSDTDNIIYQRISGWRDLIWHEKSHMSPNTIIAPITETLFYFDKDTIQIAETDTSPIIIFARACDINAMSRLDYMYLSNGNNSDYSYQLLREHIRFVLIECEESFENCFCVSMGTNKTDCYSAAMRFSDEGALVSIRDPFIEAAIQGLGQEADYTPSFVSENRETVVTPDSVCHDPQKIRDILTHHPLWDAYDSRCISCGRCTTGCPTCTCYSVFDVAYDENPQRGERRRQWASCMVPGFSDMAGGHGFREKPGERLRYRALHKVNDYKARNGIEHMCVGCGRCDDRCPQYIKFSLIINKMTAAVRQALAEEA | not soluble
7 | MAIKSVVVGKGTLTLAMKDAHTQALDFSAQVTSAKFQPDSSTGDSITVLSGETIPGKKSFGGHLEIDFLQDFSTNGIVDFSYKNAGKEADFVYTPNTEAKAKLQGTVIIAPLEVGDDVEAIAKSAAKWVVPSLPTFTPGG | not soluble
8 | MAIPFFEEEHAPKSEPSGDQVDSPMAFSIDPGHDQVDFEGPPSAAEELPPPGATSEPVAPPSAEEQLLAWKFLAITMCKVLKQFYQQHKSSGKSSKLKATVQIQPQAQ | not soluble
9 | MAISFDYSNALPFMQENELDYLSEFVKAAHHMLHERKGPGSDFLGWVDWPIRYDKNEFSRIKQAAERIRNHSDALVVIGIGGSYLGARAAIEALSHTFHNQMNDTTQIYFAGQNISSTYISHLLDVLEGKDLSINVISKSGTTTEPAIAFRIFRDYMEKKYGKEEARKRIYVTTDRTKGALKKLADQEGYETFVIPDNIGGRYSVLTAVGLLPIAVAGLNIDRMMEGAASAYHKYNNPDLLTNESYQYAAVRNILYRKGKAIELLVNYEPSLHYVSEWWKQLFGESEGKDQKGLFPASVDFTTDLHSMGQYVQEGRRNLIETVLHVKKPQIELTIQEDPENIDGLNFLAGKTLDEVNKKAFQGTLLAHVDGGVPNLIVELDEMNEYTFGEMVYFFEKACGISGHLLGVNPFDQPGVEAYKKNMFALLGKPGFEDEKAALMKRLSK | soluble
10 | MAISIKTPEDIEKMRVAGRLAAEVLEMIEPYVKPGVSTGELDRICNDYIVNEQHAVSACLGYHGYPKSVCISINEVVCHGIPDDAKLLKDGDIVNIDVTVIKDGFHGDTSKMFIVGKPTIMGERLCRITQESLYLALRMVKPGINLREIGAAIQKFVEAEGFSVVREYCGHGIGQGFHEEPQVLHYDSRETNVVLKPGMTFTIEPMVNAGKKEIRTMKDGWTVKTKDRSLSAQYEHTIVVTDNGCEILTLRKDDTIPAIISHDELVPRGSLEHHHHHH | soluble
11 | MAKAVGIDLGTTNSVIAVLEGGKPVVLENAEGERVTPSVVAFRDGETLVGRMAKRQAVLNPEGTIFEIKRFIGRRFEEVQEEAKRVPYKVVPGPDGGVRVEVKGKLYTPEEISAMILRKLVEDASKKLGEKITKAVITVPAYFNNAQREATANAGRIAGLEVLRIINEPTAAALAYGLDKKGNETVLVFDLGGGTFDVTILEIGEGVFEVKATSGDTHLGGSDMDHAIVNWLAEEFKKEHGVDLKADRQALQRLIEAAEKAKIELSSTLETTISLPFIALDPASKTPLHLEKKLTRAKFEELIQPLLKRLRGPVEQALKDAGLTPAQIDEVILVGGATRVPAVQQVVRELLGKEPNRSVNPDEVVAMGAAIQAGVLMGEVRDVVLLDVTPLSLGVETKGGVMTVLIPRNTTIPTRKCEIFTTAEHNQTAVKSIVFQGKRPMAQDNKSLGRFRLEGIPPMPAGVPQIEVCFDIDANGILHVTAKERSTGREASITIQNTTTLSEEEIQRIIEEAKRHAEEDRRRREHAELKNALDSARVQAERVLQERQGAPEARARLEAAIGKAKELVERDAPDPELKAATEELLKAVEEYEKGAQAASGKGPDDVIDADYKPAD | soluble
12 | MAKFIQKRLFASYIIRKNYYEIIGVSASATRQEIRDAFLKKTKQLHPDQSRKSSKSDSRVGWATGSSETEQFMLVKEAYDVLRNEEKRKEYDLAFSREGGFLMEATHKTQEMSTQRRNIQRAEWSADVIPDAKRNSKKVVYSHFRNPEDEYLREKQKNRM | not soluble
13 | MAKILVAGKIPEIGLELLKDHDVEMYDKEELISLDELTERVKDKDALLSLLSTKVTKEVIDAAPSLKIVANYGAGYDNIDYTYAGEKGIAVTNTPKVSTEATAELTFALLLAAARRIPEGDTLCRTTGFNGWAPLFFLGREVHGKTIGIIGLGEIGKAVAKRAKAFGMNILYTGPNRKPEAESELEATYVTLEELLQTADFITINCAYNPKLHHMIDEEQFKMMKKTAYIVNASRGPIMHEAALAHALKTNEIEGAALDVFEFEPKITEELKGLKNVVLAPHVGNATFETRDAMAEMAVRNILAVLKGEEPVTPVNQKVFVTK | soluble
14 | MAKIVILFDFDRTLIDGDSDNWVVTEMGLTEIFHQLRFTLPWNRLMDRMMMELQSQGRSIDDIKSCLKKMPIDSHIIEAIKSAKSSGCDLKIVSDANQFFIEKILEHHDLVDCFSEIYTNPTSLDDNGNLRILPYHSDALPPHSCNLCPSNLCKGLVMDHLRASSSNDQIPRRFIYLGDGGGDFCPTLKLRECDFVMPRTNYPLWKKISDNPLLIKAEVKEWSSAEEQQRILLQLVSTITKEEDS | soluble
15 | MAKKLSKKGDIQRDHFALISSFPLNQTPETKSEKLQKNLLLHKYYQGHRERLRRRYLKSKGNAIEDYEYLELLLFRTIPRANTKPIAKSLIAHFGSLADVLGADIHRLQEVQGCGPATALDLKIISDVAGRLARAQLFKRDIFSSWDQVLAYCKAVMAHETREQFRVLFLDKKNGLLADEVQQTGTIDHTPVYPREVISRALQLSASGLILVHNHPSGDATPSKADVTMTYRLKDAANALGITVHDHLIIARNNYTSFKELKFI | not soluble
16 | MAKKPTALIILDGFANRESEHGNAVKLANKPNFDRYYNKYPTTQIEASGLDVGLPEGQMGNSEVGHMNIGAGRIVYQSLTRINKSIEDGDFFENDVLNNAIAHVNSHDSALHIFGLLSDGGVHSHYKHLFALLELAKKQGVEKVYVHAFLDGRDVDQKSALKYIEETEAKFNELGIGQFASVSGRYYAMDRDKRWEREEKAYNAIRNFDAPTYATAKEGVEASYNEGLTDEFVVPFIVENQNDGVNDGDAVIFYNFRPDRAAQLSEIFANRAFEGFKVEQVKDLFYATFTKYNDNIDAAIVFEKVDLNNTIGEIAQNNNLTQLRIAETEKYPHVTYFMSGGRNEEFKGERRRLIDSPKVATYDLKPEMSAYEVKDALLEELNKGDLDLIILNFANPDMVGHSGMLEPTIKAIEAVDECLGEVVDKILDMDGYAIITADHGNSDQVLTDDDQPMTTHTTNPVPVIVTKEGVTLRETGRLGDLAPTLLDLLNVEQPEDMTGESLIKH | not soluble
17 | MAKLDKKVYERELELLQIELVKLQEWVKQEKLKLVVIFEGRDAAGKGGVIKTITEKLNPRVCRVAALPAPTEKEKTQWYFQRYVAHLPAGGEIVLFDRSWYNRAGVEKVMGFCSDEEYQEFLRSCPEFERMLQRSGIILLKYWFSVSDEEQERRFIERINTPLKRWKFSPMDLESRQRWAAYSRAKDEMFAYTDTKHCPWWVVPSDDKKRARLNCISHLLSSVEYQEIEHAPITLPEINKQGYVRPPIEDQTFVPQRY | not soluble
18 | MAKNKVLGRGLADIFPEINEVYEQGLYERANRVVELGIDEVMPNPYQPRKVFSEDSLEELAQSIKEHGLLQPVLVVSENGRYHLIAGERRLRASKLAKMPTIKAIVVDIEQEKMREVALIENIQREDLNPLELARSYKELLESYQMTQEELSKIVKKSRAHVANIMRLLTLSSKVQNALLEEKITSGHAKVLVGLDGEKQELILNSIIGQKLSVRQTEDLARDFKINANFDNKKHGFKQTQTLIAGDELERLNQSLWDHYKLKAALKGNKIVLRCYENSLLEAFMKKMMS | not soluble
19 | MAKTYDYLFKLLLIGDSGVGKTCVLFRFSDDSFNNSFISTIGIDFKIRTIELDGKKIKLQIWDTAGQERFRTITTAYYRGAMGIILVYDITNERSFENIKNWIRNIEEHAASDVERMIIGNKCDIEERREVSRDRGEQLAIEYGTKFLETSAKANLNIDEAFFTLARDIKSKMEQNEMRAGGSVSNTGRVNVGGSGTQKKSFFSNWSCNLL | not soluble
20 | MAKTYKKIGEETKVIEATEPLTILLMGVDTGNVERTETWVGRSDSMILMTVNPKTKKTTMMSLERDILTRIESGNGQAHEAKLNSAYADGGAELAIETIQKMMNIHIDRYVMVNMRGLQKLVDAVGGITVNNILGFPISISDQEEFNTISIGVGEQHIGGEEALVYARMRYQDPEGDYGRQKRQREVIQKVMEKALSLNSIGHYQEILKALSDNMQTNIDLSAKSIPNLLGYKDSFKTIETQQLQGEGEILQGVSYQIVSRAHMLEMQNILRRSLGQEEVTQLETNAVLFEDLFGRAPVGDEDNLEHHHHHH | soluble
